± gives the uncertainty stated by the source.
Test: abundance fitness (aPCA) (normalised: wild type 0, dead -1); higher = more abundant; growth selection in yeast, the domain comes from the species named
Conditions: Homo sapiens

| Substance | abundance fitness |
| --- | --- |
| E3 ubiquitin-protein ligase NEDD4-like V229K, Q96PU5 | -0.111 ± 0.095 |
| E3 ubiquitin-protein ligase NEDD4-like E201C, Q96PU5 | -0.084 ± 0.09 |
| E3 ubiquitin-protein ligase NEDD4-like P197Q, Q96PU5 | -0.081 ± 0.099 |
| E3 ubiquitin-protein ligase NEDD4-like V212W, Q96PU5 | -0.183 ± 0.083 |
| E3 ubiquitin-protein ligase NEDD4-like S230H, Q96PU5 | -0.002 ± 0.09 |
| E3 ubiquitin-protein ligase NEDD4-like D204H, Q96PU5 | -0.684 ± 0.14 |
| E3 ubiquitin-protein ligase NEDD4-like Y210M, Q96PU5 | -0.19 ± 0.084 |
| E3 ubiquitin-protein ligase NEDD4-like N213V, Q96PU5 | -0.88 ± 0.13 |
| E3 ubiquitin-protein ligase NEDD4-like P192S, Q96PU5 | -0.201 ± 0.082 |
| E3 ubiquitin-protein ligase NEDD4-like P192I, Q96PU5 | -0.269 ± 0.1 |
| E3 ubiquitin-protein ligase NEDD4-like V203P, Q96PU5 | -0.368 ± 0.07 |
| E3 ubiquitin-protein ligase NEDD4-like Y210E, Q96PU5 | -0.516 ± 0.082 |
| E3 ubiquitin-protein ligase NEDD4-like R217D, Q96PU5 | -0.042 ± 0.078 |
| E3 ubiquitin-protein ligase NEDD4-like R217K, Q96PU5 | 0.087 ± 0.091 |
| E3 ubiquitin-protein ligase NEDD4-like R223M, Q96PU5 | -0.28 ± 0.067 |
| E3 ubiquitin-protein ligase NEDD4-like Y210P, Q96PU5 | -0.778 ± 0.1 |
| E3 ubiquitin-protein ligase NEDD4-like P191G, Q96PU5 | -0.118 ± 0.054 |
| E3 ubiquitin-protein ligase NEDD4-like S225W, Q96PU5 | -0.312 ± 0.068 |
| E3 ubiquitin-protein ligase NEDD4-like G198M, Q96PU5 | -0.058 ± 0.092 |
| E3 ubiquitin-protein ligase NEDD4-like Q185E, Q96PU5 | -0.534 ± 0.097 |
| E3 ubiquitin-protein ligase NEDD4-like P197S, Q96PU5 | 0.073 ± 0.06 |
| E3 ubiquitin-protein ligase NEDD4-like N213T, Q96PU5 | -0.428 ± 0.1 |
| E3 ubiquitin-protein ligase NEDD4-like Y210K, Q96PU5 | -0.269 ± 0.069 |
| E3 ubiquitin-protein ligase NEDD4-like S230F, Q96PU5 | -0.139 ± 0.11 |

| Substance | abundance fitness |
| --- | --- |
| E3 ubiquitin-protein ligase NEDD4-like L190T, Q96PU5 | -0.182 ± 0.074 |
| E3 ubiquitin-protein ligase NEDD4-like P196A, Q96PU5 | -0.01 ± 0.07 |
| E3 ubiquitin-protein ligase NEDD4-like G198C, Q96PU5 | -0.171 ± 0.092 |
| E3 ubiquitin-protein ligase NEDD4-like P191E, Q96PU5 | -0.086 ± 0.07 |
| E3 ubiquitin-protein ligase NEDD4-like E189I, Q96PU5 | 0.107 ± 0.13 |
| E3 ubiquitin-protein ligase NEDD4-like P197D, Q96PU5 | -0.25 ± 0.11 |
| E3 ubiquitin-protein ligase NEDD4-like L190F, Q96PU5 | 0.051 ± 0.095 |
| E3 ubiquitin-protein ligase NEDD4-like W199V, Q96PU5 | -0.287 ± 0.07 |
| E3 ubiquitin-protein ligase NEDD4-like Q187Y, Q96PU5 | 0.031 ± 0.1 |
| E3 ubiquitin-protein ligase NEDD4-like R223F, Q96PU5 | -0.461 ± 0.12 |
| E3 ubiquitin-protein ligase NEDD4-like Q220K, Q96PU5 | -0.757 ± 0.12 |
| E3 ubiquitin-protein ligase NEDD4-like S231T, Q96PU5 | 0.139 ± 0.098 |
| E3 ubiquitin-protein ligase NEDD4-like S184W, Q96PU5 | -1.33 ± 0.15 |
| E3 ubiquitin-protein ligase NEDD4-like V212T, Q96PU5 | -0.225 ± 0.094 |
| E3 ubiquitin-protein ligase NEDD4-like Q185I, Q96PU5 | -0.038 ± 0.11 |
| E3 ubiquitin-protein ligase NEDD4-like H214M, Q96PU5 | 0.011 ± 0.083 |
| E3 ubiquitin-protein ligase NEDD4-like N216R, Q96PU5 | -0.239 ± 0.065 |
| E3 ubiquitin-protein ligase NEDD4-like P193V, Q96PU5 | -0.003 ± 0.054 |
| E3 ubiquitin-protein ligase NEDD4-like K202G, Q96PU5 | -0.482 ± 0.06 |
| E3 ubiquitin-protein ligase NEDD4-like L195G, Q96PU5 | -0.581 ± 0.28 |
| E3 ubiquitin-protein ligase NEDD4-like G198F, Q96PU5 | -0.15 ± 0.086 |
| E3 ubiquitin-protein ligase NEDD4-like L190W, Q96PU5 | -0.503 ± 0.068 |
| E3 ubiquitin-protein ligase NEDD4-like H186A, Q96PU5 | -0.362 ± 0.069 |
| E3 ubiquitin-protein ligase NEDD4-like Q220F, Q96PU5 | -0.618 ± 0.12 |

| Substance | abundance fitness |
| --- | --- |
| E3 ubiquitin-protein ligase NEDD4-like L190R, Q96PU5 | -0.024 ± 0.057 |
| E3 ubiquitin-protein ligase NEDD4-like R217M, Q96PU5 | -0.239 ± 0.07 |
| E3 ubiquitin-protein ligase NEDD4-like E201F, Q96PU5 | -0.412 ± 0.14 |
| E3 ubiquitin-protein ligase NEDD4-like E189A, Q96PU5 | -0.356 ± 0.065 |
| E3 ubiquitin-protein ligase NEDD4-like E189P, Q96PU5 | -0.384 ± 0.093 |
| E3 ubiquitin-protein ligase NEDD4-like W199S, Q96PU5 | -0.454 ± 0.067 |
| E3 ubiquitin-protein ligase NEDD4-like N215W, Q96PU5 | -0.293 ± 0.069 |
| E3 ubiquitin-protein ligase NEDD4-like R208T, Q96PU5 | -0.005 ± 0.08 |
| E3 ubiquitin-protein ligase NEDD4-like W199T, Q96PU5 | -0.176 ± 0.09 |
| E3 ubiquitin-protein ligase NEDD4-like S225F, Q96PU5 | -0.267 ± 0.081 |
| E3 ubiquitin-protein ligase NEDD4-like Y211H, Q96PU5 | -0.77 ± 0.12 |
| E3 ubiquitin-protein ligase NEDD4-like P194E, Q96PU5 | -0.103 ± 0.072 |
| E3 ubiquitin-protein ligase NEDD4-like K202W, Q96PU5 | -0.838 ± 0.089 |
| E3 ubiquitin-protein ligase NEDD4-like W221T, Q96PU5 | -0.035 ± 0.063 |
| E3 ubiquitin-protein ligase NEDD4-like P194Q, Q96PU5 | 0.061 ± 0.079 |
| E3 ubiquitin-protein ligase NEDD4-like S225T, Q96PU5 | -0.066 ± 0.079 |
| E3 ubiquitin-protein ligase NEDD4-like Y211D, Q96PU5 | -0.486 ± 0.065 |
| E3 ubiquitin-protein ligase NEDD4-like L206E, Q96PU5 | 0.044 ± 0.084 |
| E3 ubiquitin-protein ligase NEDD4-like H214V, Q96PU5 | -0.026 ± 0.058 |
| E3 ubiquitin-protein ligase NEDD4-like P191I, Q96PU5 | 0.152 ± 0.12 |
| E3 ubiquitin-protein ligase NEDD4-like Y211T, Q96PU5 | -0.608 ± 0.064 |
| E3 ubiquitin-protein ligase NEDD4-like H186R, Q96PU5 | -0.59 ± 0.061 |
| E3 ubiquitin-protein ligase NEDD4-like H222E, Q96PU5 | -0.013 ± 0.083 |
| E3 ubiquitin-protein ligase NEDD4-like E232P, Q96PU5 | 0.216 ± 0.17 |

| Substance | abundance fitness |
| --- | --- |
| E3 ubiquitin-protein ligase NEDD4-like P196Y, Q96PU5 | -0.384 ± 0.11 |
| E3 ubiquitin-protein ligase NEDD4-like L206W, Q96PU5 | -0.034 ± 0.077 |
| E3 ubiquitin-protein ligase NEDD4-like V229H, Q96PU5 | -0.263 ± 0.1 |
| E3 ubiquitin-protein ligase NEDD4-like K202V, Q96PU5 | -0.408 ± 0.059 |
| E3 ubiquitin-protein ligase NEDD4-like L206K, Q96PU5 | 0.126 ± 0.11 |
| E3 ubiquitin-protein ligase NEDD4-like H214N, Q96PU5 | -0.032 ± 0.11 |
| E3 ubiquitin-protein ligase NEDD4-like E200S, Q96PU5 | -0.166 ± 0.077 |
| E3 ubiquitin-protein ligase NEDD4-like S184H, Q96PU5 | -0.437 ± 0.15 |
| E3 ubiquitin-protein ligase NEDD4-like R217A, Q96PU5 | 0 ± 0.064 |
| E3 ubiquitin-protein ligase NEDD4-like Q187K, Q96PU5 | 0.243 ± 0.087 |
| E3 ubiquitin-protein ligase NEDD4-like N213M, Q96PU5 | -0.441 ± 0.11 |
| E3 ubiquitin-protein ligase NEDD4-like N216I, Q96PU5 | 0.014 ± 0.079 |
| E3 ubiquitin-protein ligase NEDD4-like S230Y, Q96PU5 | -0.204 ± 0.12 |
| E3 ubiquitin-protein ligase NEDD4-like P197I, Q96PU5 | 0.18 ± 0.11 |
| E3 ubiquitin-protein ligase NEDD4-like T218D, Q96PU5 | -0.347 ± 0.096 |
| E3 ubiquitin-protein ligase NEDD4-like E189D, Q96PU5 | -0.189 ± 0.093 |
| E3 ubiquitin-protein ligase NEDD4-like D228W, Q96PU5 | -0.419 ± 0.064 |
| E3 ubiquitin-protein ligase NEDD4-like T219W, Q96PU5 | -0.598 ± 0.075 |
| E3 ubiquitin-protein ligase NEDD4-like Q187M, Q96PU5 | -0.069 ± 0.092 |
| E3 ubiquitin-protein ligase NEDD4-like K202P, Q96PU5 | -0.814 ± 0.12 |
| E3 ubiquitin-protein ligase NEDD4-like W221Y, Q96PU5 | 0.193 ± 0.12 |
| E3 ubiquitin-protein ligase NEDD4-like P194Y, Q96PU5 | -0.279 ± 0.093 |
| E3 ubiquitin-protein ligase NEDD4-like P192Q, Q96PU5 | 0.02 ± 0.076 |

Reference: the Human Domainome abundance scans (Beltran et al. 2025)
